Results from patent US20240059799A1 (Pfizer, published 2024).
Numbering of substitutions follows the chain as printed.

T1: recombinant human TL1A (human, UniProt O95150 71-251)
T1 construct: homotrimer; biotinylated for SPR capture; the ELISA paragraphs say only 'recombinant TL1A'; also called TNFSF15
T1 chain: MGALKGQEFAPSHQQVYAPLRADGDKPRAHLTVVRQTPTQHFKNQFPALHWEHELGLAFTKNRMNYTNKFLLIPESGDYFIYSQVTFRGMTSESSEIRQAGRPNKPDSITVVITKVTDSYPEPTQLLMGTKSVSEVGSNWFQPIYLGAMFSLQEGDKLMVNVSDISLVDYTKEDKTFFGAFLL

T2: recombinant human TL1A (human, UniProt O95150 71-251)
T2 construct: The ELISA method says only 'recombinant TL1A' coated on plates; homotrimeric cytokine; also called TNFSF15; recombinant TL1A
T2 chain: T1 chain

B1: TL1A-0012 (antibody, IgG1, V domains shown)
VH: QVQLVQSGAEVKKPGASVKVSCKASGYDFTYYGISWVRQAPGQGLEWMGWISTYNGNTHYADSLQGRVTMTTDTSTRTAYMELRSLRSDDTAVYYCARENYYGSGAYRGGMDVWGQGTTVTVSS
VL: EIVLTQSPATLSLSPGERATLSCRASQSVSSYLAWYQQKPGQAPRLLIYDASNRATGIPARFSGSGSGTDFTLTISSLEPEDFAVYYCQQRSNWPWTFGQGTKVEIKR
notes: IgG1/kappa variant of TL1A-0002
B2: TL1A-0023 (antibody, IgG1, V domains shown)
VH: B1 VH with T58D, D62P
VL: B1 VL
notes: as for B1
B3: TL1A-0013 (antibody, IgG1, V domains shown)
VH: B1 VH with D62P
VL: B1 VL
notes: as for B1
B4: TL1A-0022 (antibody, IgG1, V domains shown)
VH: B1 VH with T58E, D62R, S63M
VL: B1 VL
notes: as for B1
B5: TL1A-0019 (antibody, IgG1, V domains shown)
VH: B1 VH with Y60H, D62R, S63M
VL: B1 VL
notes: as for B1
B6: TL1A-0014 (antibody, IgG1, V domains shown)
VH: B1 VH with D62Q, S63K
VL: B1 VL
notes: as for B1
B7: TL1A-0021 (antibody, IgG1, V domains shown)
VH: B1 VH with T58D, D62R, S63M
VL: B1 VL
notes: as for B1
B8: TL1A-0291 (antibody, human IgG1, kappa, V domains shown)
VH: B1 VH with I34V, G56T, N57G, D62Q, S63K, R77S, N100S, Y107H
VL: DIQMTQSPSSLSASVGDRVTITCRASQSVSSYLAWYQQKPGKAPKLLIYDASNRATGVPSRFSGSGSGTDFTLTISSLQPEDFATYYCQQRSNWPWTFGQGTKVEIKR
notes: human IgG1 effector-function-minimized / human kappa
B9: TL1A-0286 (antibody, human IgG1, kappa, V domains shown)
VH: B1 VH with I34V, G56D, D62Q, S63K, R77S, N100S, Y107F
VL: B8 VL
notes: as for B8
B10: TL1A-0309 (antibody, human IgG1, kappa, V domains shown)
VH: B1 VH with S35G, G56T, D62P, R77S, N100S, Y107H
VL: B8 VL
notes: as for B8
B11: TL1A-0298 (antibody, V domains shown)
VH: B1 VH with S35G, G56D, D62P, R77S, N100S, Y107F
VL: B8 VL
notes: IgG1 effector-minimized/kappa
B12: TL1A-0300 (antibody, V domains shown)
VH: B1 VH with S35G, G56D, D62Q, S63K, R77S, N100S, Y107F
VL: B8 VL
notes: IgG1 effector-minimized/kappa
B13: TL1A-0324 (antibody, human IgG1, kappa, V domains shown)
VH: B1 VH with G56T, D62R, S63M, R77S, N100S
VL: B8 VL
notes: as for B8
B14: TL1A-0285 (antibody, human IgG1, kappa, V domains shown)
VH: B1 VH with I34V, G56D, D62P, R77S, N100S, Y107H
VL: B8 VL
notes: as for B8
B15: TL1A-0287 (antibody, human IgG1, kappa, V domains shown)
VH: B1 VH with I34V, G56D, D62Q, S63K, R77S, N100S, Y107H
VL: B8 VL
notes: as for B8
B16: TL1A-0292 (antibody, human IgG1, kappa, V domains shown)
VH: B1 VH with I34V, G56T, N57V, D62P, R77S, N100S, Y107F
VL: B8 VL
notes: as for B8
B17: TL1A-0308 (antibody, human IgG1, kappa, V domains shown)
VH: B1 VH with S35G, G56T, D62P, R77S, N100S, Y107F
VL: B8 VL
notes: as for B8
B18: TL1A-0290 (antibody, V domains shown)
VH: B1 VH with I34V, G56T, N57G, D62Q, S63K, R77S, N100S, Y107F
VL: B8 VL
notes: IgG1 effector-minimized/kappa
B19: TL1A-0296 (antibody, V domains shown)
VH: B1 VH with I34V, N55G, D62P, R77S, N100S, Y107F
VL: B8 VL
notes: IgG1 effector-minimized/kappa
B20: TL1A-0288 (antibody, human IgG1, kappa, V domains shown)
VH: B1 VH with I34V, G56T, N57G, D62P, R77S, N100S, Y107F
VL: B8 VL
notes: as for B8
B21: TL1A-0304 (antibody, human IgG1, kappa, V domains shown)
VH: B1 VH with S35G, G56T, N57G, D62Q, S63K, R77S, N100S, Y107F
VL: B8 VL
notes: as for B8
B22: TL1A-0301 (antibody, V domains shown)
VH: B1 VH with S35G, G56D, D62Q, S63K, R77S, N100S, Y107H
VL: B8 VL
notes: IgG1 effector-minimized/kappa
B23: TL1A-0293 (antibody, human IgG1, kappa, V domains shown)
VH: B1 VH with I34V, G56T, N57V, D62P, R77S, N100S, Y107H
VL: B8 VL
notes: as for B8
B24: TL1A-0311 (antibody, V domains shown)
VH: B1 VH with S35G, N55G, D62P, R77S, N100S, Y107H
VL: B8 VL
notes: IgG1 effector-minimized/kappa
B25: TL1A-0306 (antibody, human IgG1, kappa, V domains shown)
VH: B1 VH with S35G, G56T, N57V, D62P, R77S, N100S, Y107F
VL: B8 VL
notes: as for B8
B26: TL1A-0295 (antibody, human IgG1, kappa, V domains shown)
VH: B1 VH with I34V, G56T, D62P, R77S, N100S, Y107H
VL: B8 VL
notes: as for B8
B27: TL1A-0294 (antibody, human IgG1, kappa, V domains shown)
VH: B1 VH with I34V, G56T, D62P, R77S, N100S, Y107F
VL: B8 VL
notes: as for B8
B28: TL1A-0303 (antibody, human IgG1, kappa, V domains shown)
VH: B1 VH with S35G, G56T, N57G, D62P, R77S, N100S, Y107H
VL: B8 VL
notes: as for B8
B29: TL1A-0305 (antibody, human IgG1, kappa, V domains shown)
VH: B1 VH with S35G, G56T, N57G, D62Q, S63K, R77S, N100S, Y107H
VL: B8 VL
notes: as for B8
B30: TL1A-0307 (antibody, human IgG1, kappa, V domains shown)
VH: B1 VH with S35G, G56T, N57V, D62P, R77S, N100S, Y107H
VL: B8 VL
notes: as for B8
B31: TL1A-0284 (antibody, human IgG1, kappa, V domains shown)
VH: B1 VH with I34V, G56D, D62P, R77S, N100S, Y107F
VL: B8 VL
notes: as for B8
B32: TL1A-0302 (antibody, V domains shown)
VH: B1 VH with S35G, G56T, N57G, D62P, R77S, N100S, Y107F
VL: B8 VL
notes: IgG1 effector-minimized/kappa
B33: TL1A-0299 (antibody, V domains shown)
VH: B1 VH with S35G, G56D, D62P, R77S, N100S, Y107H
VL: B8 VL
notes: IgG1 effector-minimized/kappa
B34: TL1A-0289 (antibody, human IgG1, kappa, V domains shown)
VH: B1 VH with I34V, G56T, N57G, D62P, R77S, N100S, Y107H
VL: B8 VL
notes: as for B8
B35: TL1A-0310 (antibody, V domains shown)
VH: B1 VH with S35G, N55G, D62P, R77S, N100S, Y107F
VL: B8 VL
notes: IgG1 effector-minimized/kappa
B36: TL1A-0297 (antibody, V domains shown)
VH: B1 VH with I34V, N55G, D62P, R77S, N100S, Y107H
VL: B8 VL
notes: IgG1 effector-minimized/kappa

Target: T1, recombinant human TL1A
Experiment: competition ELISA vs bio-TL1A-0002
Protocol: For this competition ELISA assay procedure, 96-well high binding plates (Corning, product number 3590) were coated with 1 μg/mL recombinant TL1A in 100 μL/well in Phospate Buffered Saline (PBS) overnight at 4° C. Plates were then blocked in PBS+0.02% casein solution and washed with PBS+0.05% Tween-20 following standard ELISA protocol. […] Plates were washed with PBS+0.05% Tween-20 following standard ELISA protocol, and Streptavidin-HRP (Southern Biotech, product number 7100-05) diluted to 1:10,000 in assay buffer was added to plates and incubated for 25-30 minutes at room temperature. Next, the plates were washed with PBS+0.05% Tween-20 following standard ELISA protocol, and then TMB substrate (BioFX Laboratories, catalog number TMBW-0100-01) was added to plates. Reactions were stopped after approximately 5 minutes by adding 0.18 M ortho-phosphoric acid to each well and absorbance was read at 450 nm.

Bioactivity relative to TL1A-0002 [fold] | IC50 [nM] | Binder
1.1 | 5 | B1
1.3 | 5.6 | B2
1.2 | 5.5 | B3
1.5 | 6.9 | B4
1.1 | 5 | B5
1.1 | 5.1 | B6
1.3 | 6 | B7

Target: T2, recombinant human TL1A
Experiment: competition ELISA on coated recombinant TL1A; competitor biotinylated TL1A-0002

Bioactivity relative to TL1A-0002 [fold] | IC50 [nM] | Binder
1.8 | 9 | B8
2.3 | 11.6 | B9
3.3 | 16.8 | B10
5 | 25.3 | B11
4.7 | 23.8 | B12
1.2 | 6.1 | B13
1.7 | 8.6 | B14
2 | 10.1 | B15
1.9 | 9.6 | B16
2.8 | 14.2 | B17
4.2 | 21 | B18
17.3 | 87.3 | B19
1.6 | 8 | B20
3 | 14.9 | B21
4.9 | 24.7 | B22
1.9 | 9.7 | B23
6 | 30.2 | B24
3.1 | 15.8 | B25
2.4 | 12.3 | B26
1.6 | 8 | B27
3 | 15 | B28
2.9 | 14.5 | B29
3.4 | 17.2 | B30
2 | 10.3 | B31
4 | 20.4 | B32
4.5 | 22.9 | B33
1.6 | 7.9 | B34
14.8 | 74.7 | B35
14.5 | 73.1 | B36
